From patent US20240239881A1 (Innovent, published 2024)

T1: Human Ang1 (human, UniProt Q15389 20-498, limits assumed)
T1 construct: also called hAng1
T1 sequence (looked up): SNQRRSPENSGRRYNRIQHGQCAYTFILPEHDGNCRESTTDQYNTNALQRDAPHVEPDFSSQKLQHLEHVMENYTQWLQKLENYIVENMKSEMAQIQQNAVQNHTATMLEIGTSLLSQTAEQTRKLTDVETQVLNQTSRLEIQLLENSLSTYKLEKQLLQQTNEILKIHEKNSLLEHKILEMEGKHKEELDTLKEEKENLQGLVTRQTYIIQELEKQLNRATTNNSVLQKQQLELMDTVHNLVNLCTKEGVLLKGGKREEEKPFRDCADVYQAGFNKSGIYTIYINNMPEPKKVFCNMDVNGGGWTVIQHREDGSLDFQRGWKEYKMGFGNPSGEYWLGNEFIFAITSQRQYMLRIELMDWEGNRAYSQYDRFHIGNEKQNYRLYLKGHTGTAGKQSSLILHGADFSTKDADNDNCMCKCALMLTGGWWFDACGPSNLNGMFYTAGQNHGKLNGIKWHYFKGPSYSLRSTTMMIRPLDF

T2: human Ang2 (human, UniProt O15123 19-496, limits assumed)
T2 construct: also called hAng2; h Ang2
T2 sequence: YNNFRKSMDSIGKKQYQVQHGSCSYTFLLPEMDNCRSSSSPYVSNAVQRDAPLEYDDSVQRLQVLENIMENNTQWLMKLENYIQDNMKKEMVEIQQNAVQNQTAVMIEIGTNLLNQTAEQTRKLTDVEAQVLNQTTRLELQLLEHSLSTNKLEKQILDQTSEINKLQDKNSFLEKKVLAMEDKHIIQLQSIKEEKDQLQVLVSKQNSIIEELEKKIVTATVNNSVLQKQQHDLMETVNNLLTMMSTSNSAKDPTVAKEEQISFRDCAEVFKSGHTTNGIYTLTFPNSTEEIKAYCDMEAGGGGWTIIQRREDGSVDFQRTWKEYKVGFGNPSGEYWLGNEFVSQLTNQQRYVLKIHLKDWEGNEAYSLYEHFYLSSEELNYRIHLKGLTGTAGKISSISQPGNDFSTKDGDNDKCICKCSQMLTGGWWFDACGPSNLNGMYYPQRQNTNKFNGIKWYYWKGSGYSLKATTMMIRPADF

T3: recombinant biotinylated hAngiopoietin-2 protein (R&D, Cat. No.: BT623B/CF) (human, UniProt O15123 19-496, limits assumed, biotinylated (sites not given))
T3 construct: Bought protein; also called Biotin Ang2; human biotin Ang2 protein
T3 sequence: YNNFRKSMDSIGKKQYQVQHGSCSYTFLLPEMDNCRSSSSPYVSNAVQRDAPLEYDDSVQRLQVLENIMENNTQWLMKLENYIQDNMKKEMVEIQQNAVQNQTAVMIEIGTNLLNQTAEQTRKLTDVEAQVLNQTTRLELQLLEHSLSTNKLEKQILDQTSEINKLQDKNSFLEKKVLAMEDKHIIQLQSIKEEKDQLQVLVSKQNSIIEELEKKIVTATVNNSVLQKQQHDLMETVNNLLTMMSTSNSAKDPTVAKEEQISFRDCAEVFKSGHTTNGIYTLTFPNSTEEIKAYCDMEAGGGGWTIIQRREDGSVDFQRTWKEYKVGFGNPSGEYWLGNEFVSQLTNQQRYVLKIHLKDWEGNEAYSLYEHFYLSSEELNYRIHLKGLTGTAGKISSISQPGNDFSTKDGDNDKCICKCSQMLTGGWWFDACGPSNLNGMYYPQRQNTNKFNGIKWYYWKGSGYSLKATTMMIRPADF

T4: Human ang2 protein (Sino Biological, Cat No.: 10691-H08H) (human, UniProt O15123 19-496)
T4 construct: Bought protein; also called recombinant hAng2; human hAng2
T4 sequence: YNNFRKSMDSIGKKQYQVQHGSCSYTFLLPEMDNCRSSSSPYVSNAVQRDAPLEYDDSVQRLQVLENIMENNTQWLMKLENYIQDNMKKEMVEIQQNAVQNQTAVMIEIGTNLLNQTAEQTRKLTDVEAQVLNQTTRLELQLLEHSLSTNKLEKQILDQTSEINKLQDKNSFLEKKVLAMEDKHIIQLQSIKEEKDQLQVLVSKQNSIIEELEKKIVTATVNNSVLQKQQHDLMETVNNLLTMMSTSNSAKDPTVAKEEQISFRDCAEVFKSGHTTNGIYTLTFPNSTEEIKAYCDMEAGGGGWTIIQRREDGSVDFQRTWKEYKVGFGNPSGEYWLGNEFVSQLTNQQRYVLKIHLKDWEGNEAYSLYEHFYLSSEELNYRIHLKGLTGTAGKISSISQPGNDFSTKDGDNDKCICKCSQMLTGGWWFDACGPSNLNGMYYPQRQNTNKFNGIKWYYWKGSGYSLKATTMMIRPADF


Assays:
Human Ang1 = target: T1, Human Ang1; assay: ForteBio BLI, antibody on AHQ sensor
Procedure: (§1) The equilibrium dissociation constants (KD) of the above exemplary antibodies of the present invention binding to human Ang2 (h Ang2), cynomolgus monkey Ang2 (cAng2), murine Ang2 (mAng2), and human Ang1 (hAng1) were determined using the biological optical interferometry (ForteBio) assay.
(§2) The ForteBio affinity assay was performed according to the existing method (Estep, P et al., High throughput solution-based measurement of antibody-antigen affinity and epitope binning. MAbs, 2013.5 (2): p. 270-8). Briefly, the sensor was equilibrated in the assay buffer off-line for 30 min, followed by on-line detection for 60 s to establish the baseline. Then the purified antibodies obtained as described above were loaded on-line onto an AHQ sensor (ForteBio) for ForteBio affinity assay. The sensors with loaded antibodies were exposed to 100 nM of hAng2, cAng2, mAng2, and hAng1 antigens for 5 min, and then were transferred into the assay buffer for dissociation for 5 min to determine the dissociation rate. Kinetic analysis was performed using a 1:1 binding model.

human Ang2 = target: T2, human Ang2; assay: ForteBio BLI, antibody on AHQ sensor, 100 nM antigen, 1:1 model
Procedure: as §1, §2

[1] = target: T3, recombinant biotinylated …; assay: blocking ELISA: antibody titrated against biotinylated hAng2 (300 ng/ml final); blocked binding to coated hTie2 protein; Avidin-HRP detection
Procedure: The abilities of 81H10, 86E9, 107H7, hz81H10.4, Amhz81H10.4.30, Amhz81H10.4.49, and the control antibodies Nesvacumab and faricimab to block the binding of human Ang2 to hTie2 were determined by ELISA. Faricimab is a bispecific antibody drug undergoing a clinical trial and developed by Roche, which targets both angiopoietin-2 (Ang-2) and VEGF-A.
Then the plate was blocked using 5% BSA for 1 h. The biotinylated antigen, recombinant biotinylated hAngiopoietin-2 protein (R&D, Cat. No.: BT623B/CF), was diluted to 600 ng/ml, and was added into the microtiter plate at 50 μl/well. The antibodies (81H10, 86E9, 107H7, hz81H10.4, Amhz81H10.4.30 and Amhz81H10.4.49) prepared as described above were gradiently diluted with a total of 8 or 12 dilution points starting from the highest concentration, and then added to the microtiter plate at 50 μl/well, and incubated in PBS on ice for 30 min. Then, 50 ul of antigen solution was added to the microtiter plate, in which the final antigen concentration was 300 ng/ml. The plate containing the antigen-antibody mixture was incubated for 90 min. After three washes with PBS, the supernatant was discarded, and Avidin-HRP (Invitrogen) diluted at 1:10000 was added at 100 μl/well, then incubated at room temperature for 30 min. PBS was used to wash the plate six times. Then TMB chromogen solution (solarbio) was added at 100 ul/well to allow for chromogenic reaction for 1 min, then the reaction was terminated with the addition of stop solution (solarbio) at 100 ul/well.

[2] = target: T4, Human ang2 protein (Sino Biological, …); assay: ELISA: human ang2 protein (Sino Biological 10691-H08H) coated at 0.25 ug/ml, antibody titrated, HRP-conjugated secondary antibody, OD450-OD620, GraphPad fit
Procedure: The binding of the respective parental murine hybridoma antibodies of the above exemplary chimeric antibodies 81H10, 86E9, and 107H7 to human hAng2 was measured in an ELISA-based assay.
Human ang2 protein (Sino Biological, Cat No.: 10691-H08H) was diluted to 0.25 μg/ml with PBS, and was coated onto a microtiter plate at 100 μl/well at 4° C. overnight. After three washes with PBST, the plate was blocked with 5% BSA. Gradient diluted antibodies (maximum concentration 20 nM, 1:2 serial dilution) were added to the microtiter plate and incubated for 2 h. After three washes with PBST, a 1:10000 dilution of anti-mouse IgG, HRP-conjugated antibody (Cell Signaling, Cat. No. 7076P2) was added, and after incubation for 60 min, the plate was washed six times with PBST. Chromogenic reaction was performed with 100 ul TMB and terminated with 100 ul 2N sulfuric acid. The reading of OD₄₅₀-OD₆₂₀ was taken by microplate reader. The concentration-dependent curve was fitted with GraphPad based on the OD₄₅₀-OD₆₂₀.

Row | Binder | binding result (Human Ang1) | Kd (human Ang2) | IC50 [1] | EC50 [2]
1 | affinity matured antibody Amhz81H10.4.49 (antibody, human IgG1, kappa, V domains shown, also called Am81H10.4.49) VH: EVQLVESGGGLVKPGGSLRLSCAASGFTFQNYWANWVRQAPGKGLEWVAEIRLKSNNYATHYAESVKGRFTISRDVSKNTVYLQMNSLKTEDTAVYYCTDTTPAAYWGQGTLVTVSS VL: DIQMTQSPSSLSASVGDRVTITCKASQDVWTDVAWYQQKPGKAPKLLIYWGSTRWTGVPSRFSGSGSGTDFTLTISSLQPEDFATYYCQQTNIYPLTFGGGTKVEIKR | no binding (tested: 100 nM) | 0.647 nM | 0.506 nM | –
2 | parental murine hybridoma antibody of chimeric antibody 86E9 (antibody, V domains shown, Murine antibody from the hybridoma; also called 86E9 (murine hybridoma antibody)) VH: EVMLVESGGGLVQPGGSMKLSCVASGFTFSNYWMNWVRQSPEKGLEWVAEIRLKSNNYATHYAESVKGRFTISRDVSKSGVYLQMNNLRTEDTGIYYCTDTAPFAYWGQGTLVTVSA VL: DIVMTQSHKFLSTSVGARVSITCKASQDVGTDVAWYQQKPGQSPKLLIYWASTRHTGVPDRFTGSGSGTDFTLTISNVQSEDLSDYFCQQYSSYPLTFGGGTKLEIK | – | – | – | 0.434 nM

Second part, the binder after the results:

Row | binding result (Human Ang1) | Kd (human Ang2) | IC50 [1] | EC50 [2] | Binder
3 | – | – | – | 0.231 nM | parental murine hybridoma antibody of chimeric antibody 107H7 (antibody, V domains shown, Murine antibody from the hybridoma; also called 107H7 (murine hybridoma antibody)) VH: EVMLVESGGGLVQPGGSMKLSCVASGFTFSNYWMNWVRQSPEKGLEWVAEIRLKSNNYATHYAESVKGRFTISRDVSKSGVYLQMNNLRTEDTGIYYCTDTAPFAYWGQGTLVTVSA VL: DIVMTQTPKFLSTSVGARVSITCKASQDVGTDVAWYQQKPGQSPKLLIYWASTRHTGVPDRFTGSGSGTDFTLTISNVQSEDLSDYFCQQYSSYPLTFGGGTKLEIK
4 | – | – | – | 0.248 nM | parental murine hybridoma antibody of chimeric antibody 81H10 (antibody, V domains shown, Murine antibody from the hybridoma; also called 81H10 (murine hybridoma antibody)) VH: EVKLEESGGGLVQPGGSMKLSCVASGFTFSNYWMNWVRQSPEKGLEWVAEIRLKSNNYATHYAESVKGRFTISRDVSKSSVYLQMNNLRTEDTGIYYCTDTAPFAYWGQGTLVTVSA VL: DIVMTQSHKFMSTSVGDRVSITCKASQDVGTDVAWYQQKPGQSPKLLIYWASTRHTGVPDRFTGSGSGTDFTLTISNVQSEDLSDYFCQQYSSYPLTFGGGTKLEIK
